Data: PMC10442045

Columns and labels:
Settings in all cases: LightShift EMSA: 1x binding buffer, 2.5% glycerol, 5 mM MgCl2, 0.05% NP-40, 5 mM EDTA, 20 ng probe, 0-0.5 ng protein (so in the source), 20 uL, 20 min at 26 C; 6% …
[1] = molecular target: T1, OxyR (Pseudomonas aeruginosa PA14) (UniProt A0A0H2ZI92); assay: competition
T1 sequence: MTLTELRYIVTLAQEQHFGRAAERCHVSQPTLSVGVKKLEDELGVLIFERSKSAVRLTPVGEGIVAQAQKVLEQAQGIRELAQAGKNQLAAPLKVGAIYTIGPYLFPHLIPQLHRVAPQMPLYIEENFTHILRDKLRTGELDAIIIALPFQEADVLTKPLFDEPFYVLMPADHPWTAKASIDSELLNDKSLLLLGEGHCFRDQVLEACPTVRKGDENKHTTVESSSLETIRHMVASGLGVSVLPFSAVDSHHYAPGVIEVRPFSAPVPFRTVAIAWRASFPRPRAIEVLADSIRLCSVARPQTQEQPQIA

[2] = molecular target: T2, OmpR (Pseudomonas aeruginosa PA14) (UniProt A0A0H2ZIR0); assay: competition
T2 sequence: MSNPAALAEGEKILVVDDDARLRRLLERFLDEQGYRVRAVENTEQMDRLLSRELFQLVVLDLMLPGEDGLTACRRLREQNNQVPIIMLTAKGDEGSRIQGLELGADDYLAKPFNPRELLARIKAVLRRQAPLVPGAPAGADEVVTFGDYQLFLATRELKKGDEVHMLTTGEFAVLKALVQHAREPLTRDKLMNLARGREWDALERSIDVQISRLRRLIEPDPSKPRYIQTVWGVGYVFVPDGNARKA

[3] = molecular target: T1, OxyR (Pseudomonas aeruginosa PA14); assay: EMSA
[4] = molecular target: T2, OmpR (Pseudomonas aeruginosa PA14); assay: EMSA

Row | Sequence | binding [1] | binding [2] | binding [3] | binding [4]
1 | CGATGCGCCCGTCGGCGTAGCGTTTATGTAGTTCAGCGCGCGATACACCTGTCCCTTGAAGGCGGAGGGATACGGGCTTTCCTCGTAGAAGCCGGTGGCTTCGTTGAGCACCTCCCAATCGCTGTCCTGGGTCAGCACGGCGATTCCGGGCGGGGTCGCATGATACAGGCCGTTCGTGGGGCGCCAGTATTCGATGGTTCGGGGCAT (double strand) [Unrelated DNA (control)] | no binding | no binding | – | –
2 | GGGAGTCCAACGAAAATTTTATTTTGCAAATCCATAGACCTGTTCTAGCGTCTTTTGTAGTTCGTCGCCAGTGACGGACCAGAGGGATCGCCAAGGACAGGTTCTGCGCCGTTTTCCCTGTCATGCCTGTGATCCAGCAAGGGACTGCGATGATCAGGGCATCCCCCGATGCATTGCGCCCCCACCATTGCATCGGAGTCAGCCGCC (double strand) [Bio-PH3-T6SS left] | – | – | binds | binds
